# Literature values, collected in publication PMC6310256.
# Target: complement C5 (human, recombinant) (UniProt P01031)
# Experiment: SPR (Biacore), as reported in ref 17
# Details: cited from earlier work
# Chain of UniProt P01031 (P01031 whole entry): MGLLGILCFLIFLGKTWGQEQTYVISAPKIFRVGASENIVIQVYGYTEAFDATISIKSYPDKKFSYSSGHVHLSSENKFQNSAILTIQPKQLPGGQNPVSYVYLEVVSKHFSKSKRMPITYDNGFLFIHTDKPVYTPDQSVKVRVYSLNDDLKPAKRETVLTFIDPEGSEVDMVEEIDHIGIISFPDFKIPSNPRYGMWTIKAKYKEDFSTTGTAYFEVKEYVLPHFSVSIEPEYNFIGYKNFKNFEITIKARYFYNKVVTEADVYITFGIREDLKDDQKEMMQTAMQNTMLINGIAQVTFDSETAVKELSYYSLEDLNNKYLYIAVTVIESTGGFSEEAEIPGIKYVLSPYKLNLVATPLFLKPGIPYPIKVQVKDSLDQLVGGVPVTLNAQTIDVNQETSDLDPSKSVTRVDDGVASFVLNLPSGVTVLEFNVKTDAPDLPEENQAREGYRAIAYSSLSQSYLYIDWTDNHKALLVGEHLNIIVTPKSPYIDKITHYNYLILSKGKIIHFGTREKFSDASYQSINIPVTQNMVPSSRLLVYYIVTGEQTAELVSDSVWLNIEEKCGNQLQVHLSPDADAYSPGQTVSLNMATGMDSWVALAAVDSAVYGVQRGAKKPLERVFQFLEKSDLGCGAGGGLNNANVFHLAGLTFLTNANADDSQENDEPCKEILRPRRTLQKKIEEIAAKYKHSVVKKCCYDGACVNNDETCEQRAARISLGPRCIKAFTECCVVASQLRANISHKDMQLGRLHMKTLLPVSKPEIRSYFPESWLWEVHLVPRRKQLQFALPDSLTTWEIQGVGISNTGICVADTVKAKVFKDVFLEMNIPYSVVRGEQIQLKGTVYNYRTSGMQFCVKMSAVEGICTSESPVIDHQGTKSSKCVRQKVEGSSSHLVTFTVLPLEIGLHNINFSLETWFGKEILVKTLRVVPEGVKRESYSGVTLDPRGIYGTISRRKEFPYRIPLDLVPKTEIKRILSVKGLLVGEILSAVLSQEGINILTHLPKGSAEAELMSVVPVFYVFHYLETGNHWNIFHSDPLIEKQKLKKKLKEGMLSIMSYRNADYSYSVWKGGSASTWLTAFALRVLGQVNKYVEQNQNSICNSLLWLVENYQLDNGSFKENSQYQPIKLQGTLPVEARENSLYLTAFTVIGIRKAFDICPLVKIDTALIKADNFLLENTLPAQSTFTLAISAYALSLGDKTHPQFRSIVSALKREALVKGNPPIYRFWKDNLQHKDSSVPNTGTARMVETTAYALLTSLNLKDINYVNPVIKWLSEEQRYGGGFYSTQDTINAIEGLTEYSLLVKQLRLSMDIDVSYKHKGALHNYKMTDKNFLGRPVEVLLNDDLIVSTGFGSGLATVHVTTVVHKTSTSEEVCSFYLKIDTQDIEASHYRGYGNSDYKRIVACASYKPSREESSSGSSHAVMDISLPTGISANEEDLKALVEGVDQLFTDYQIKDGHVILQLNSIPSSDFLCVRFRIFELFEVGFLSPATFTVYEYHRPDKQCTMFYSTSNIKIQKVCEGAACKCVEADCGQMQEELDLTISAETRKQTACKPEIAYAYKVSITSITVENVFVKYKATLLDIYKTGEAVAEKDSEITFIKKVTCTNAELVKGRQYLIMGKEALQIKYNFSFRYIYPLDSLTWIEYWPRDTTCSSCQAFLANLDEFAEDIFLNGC
substance,measurement,setting,value
"SKY59 (crovalimab, RO7112689) Includes am1-am6 and pm1-pm3 (pm3 is light chain F92K, Kabat), plus charge, deimmunization and Fc mutations that are not listed.",kd,pH 5.8,0.0145 s⁻¹
same,KD,pH 7.4,0.152 nM
same,ka,pH 7.4,1.44e+06 M⁻¹ s⁻¹
